What is called Kd is the free concentration of one partner at which half of the binding sites on the other are occupied at equilibrium, for simple one-to-one binding. Low values mean higher affinity, high ones lower affinity.

Holding throughout (assay): MST; NT-647-NHS-labelled PP2A subunit at 20 nM as target, 12-point twofold dilution series of unlabelled ARPP as ligand; SEC buffer with 0.05% Tween-20; triplicate; single-site binding model
Assay [1] has as its target PP2A regulatory subunit B56γ.
The target in assay [2] is PP2A scaffolding subunit PR65α, full length (UniProt P30153).
PP2A scaffolding subunit PR65α, full length, sequence (P30153 whole entry): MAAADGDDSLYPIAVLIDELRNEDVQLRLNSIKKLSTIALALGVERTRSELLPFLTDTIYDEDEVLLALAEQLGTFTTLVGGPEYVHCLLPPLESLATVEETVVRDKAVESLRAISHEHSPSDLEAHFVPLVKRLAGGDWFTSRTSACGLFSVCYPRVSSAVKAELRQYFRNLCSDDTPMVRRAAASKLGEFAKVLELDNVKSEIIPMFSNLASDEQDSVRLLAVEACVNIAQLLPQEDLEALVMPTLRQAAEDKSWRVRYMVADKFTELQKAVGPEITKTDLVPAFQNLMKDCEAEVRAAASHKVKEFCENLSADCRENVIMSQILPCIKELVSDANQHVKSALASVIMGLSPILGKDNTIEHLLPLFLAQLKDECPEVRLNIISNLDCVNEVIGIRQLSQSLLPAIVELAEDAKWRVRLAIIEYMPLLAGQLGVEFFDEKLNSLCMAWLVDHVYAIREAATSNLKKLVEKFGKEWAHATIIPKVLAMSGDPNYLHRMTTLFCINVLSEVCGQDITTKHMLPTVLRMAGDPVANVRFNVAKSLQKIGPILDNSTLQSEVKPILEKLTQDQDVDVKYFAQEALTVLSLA
Assay [3] deals with PP2A regulatory subunit B56α.
PP2A regulatory subunit B56α, sequence (Q15172 whole entry): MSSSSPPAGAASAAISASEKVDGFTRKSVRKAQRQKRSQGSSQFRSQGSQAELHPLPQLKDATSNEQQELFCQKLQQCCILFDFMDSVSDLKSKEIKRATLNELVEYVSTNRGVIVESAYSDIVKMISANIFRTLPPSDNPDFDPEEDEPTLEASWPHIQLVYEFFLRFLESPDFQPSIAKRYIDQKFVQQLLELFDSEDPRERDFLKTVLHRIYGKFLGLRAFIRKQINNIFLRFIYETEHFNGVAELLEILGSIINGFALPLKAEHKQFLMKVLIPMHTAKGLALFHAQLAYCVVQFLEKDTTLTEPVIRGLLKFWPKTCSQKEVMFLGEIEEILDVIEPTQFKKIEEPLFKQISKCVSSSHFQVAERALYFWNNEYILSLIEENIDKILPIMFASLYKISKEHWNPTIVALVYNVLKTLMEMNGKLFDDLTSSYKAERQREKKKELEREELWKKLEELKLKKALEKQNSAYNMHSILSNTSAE

PP2A regulatory subunit B56γ, sequence (Q13362 whole entry): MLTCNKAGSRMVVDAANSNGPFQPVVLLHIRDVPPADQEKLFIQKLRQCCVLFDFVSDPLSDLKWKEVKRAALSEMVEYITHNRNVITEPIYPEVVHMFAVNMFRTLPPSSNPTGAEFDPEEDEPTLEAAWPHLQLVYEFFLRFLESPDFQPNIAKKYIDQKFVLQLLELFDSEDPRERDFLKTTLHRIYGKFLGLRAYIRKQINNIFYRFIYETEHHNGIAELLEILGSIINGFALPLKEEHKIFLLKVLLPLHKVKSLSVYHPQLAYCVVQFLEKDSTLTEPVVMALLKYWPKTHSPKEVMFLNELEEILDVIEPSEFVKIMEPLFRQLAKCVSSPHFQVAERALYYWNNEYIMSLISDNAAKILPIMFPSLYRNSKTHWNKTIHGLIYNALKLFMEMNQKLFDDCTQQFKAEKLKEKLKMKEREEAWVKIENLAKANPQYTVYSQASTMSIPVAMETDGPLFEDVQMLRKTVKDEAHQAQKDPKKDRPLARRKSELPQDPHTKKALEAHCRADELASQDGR

In the case of “ARPP-16 (splice variant of ARPP-19), wild type (natural protein)”, the values for the Kd in assay [1] and in assay [2] were 710 µM and 5.4 µM, respectively.

For the substance “ARPP-16 (splice variant of ARPP-19), wild type (natural protein; other documents disagree on this pair)”, the Kd in assay [3] was determined as 80 µM. With “ARPP-16 S46E phosphomimicking mutant (natural protein)”, the Kd in assay [1] was determined as 440 µM; in assay [2] it was 1 µM. Take “ARPP-16 S46E phosphomimicking mutant (natural protein; other documents disagree on this pair)”: the Kd in assay [3] worked out at 110 µM. For the substance “ARPP-16 S88E phosphomimicking mutant (natural protein)”, the Kd in assay [1] amounted to 200 µM; in assay [2] it was 3.3 µM. “ARPP-16 S88E phosphomimicking mutant (natural protein; other documents disagree on this pair)” returned a Kd in assay [3] of 130 µM.

The record behind these values is article PMC8032985.
